According to paper PMC2836930 (Biomacromolecules, 2008):
Where “and” joins values, the source holds several entries; their conditions need not be identical. Identical values can stand only once. Like-named read-outs stand apart in the source and are kept apart here.

Legend:
[1] = target: the molecule itself; test: AUC
[2] = target: the molecule itself; test: AUC; remark: listed apart in the source

Ac-IDFISTYITKIDKKIQSIEDIIHQIENKISEIKQLIK-NH2 [γ_(52–88)KI]
Kd [1]: 4.95 µM | stoichiometry N [1]: 2 and 4 | stoichiometry N [2]: ~2 and ~4
